From patent US20130109619A1 (UNITED STATES OF AMERICA AS REPRESENTED BY THE SECRETARY …, published 2013)
Non-standard residues stand in square brackets, D forms with d. Fluo = fluorescein on the Cys side-chain sulfur; Nle = CCCC[C@H](N)C(=O)O

Molecular target: recombinant Epstein Barr virus (EBV) IL10 (Epstein Barr virus, UniProt P03180 24-170)
Experiment: concentration-dependent changes in fluorescence intensity of the environment-sensitive fluorescein label on the peptide

Sequence of recombinant Epstein Barr virus (EBV) IL10 (P03180 24-170 limits assumed): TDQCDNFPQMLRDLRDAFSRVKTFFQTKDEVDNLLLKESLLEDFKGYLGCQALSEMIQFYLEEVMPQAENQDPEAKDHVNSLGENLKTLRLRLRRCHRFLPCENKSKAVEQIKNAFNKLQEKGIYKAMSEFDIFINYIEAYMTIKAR

B1: IL10-HF-6 (peptide)
peptide: Ac-C(Fluo)YKA[Nle]SEFDIFINYIEAY[Nle]T[Nle]KIRN-NH2
notes: also called fluorescent derivative of helix F of IL10; helix F analog
Kd: 50 nM
